According to the Immune Epitope Database (IEDB):
pIC50, pKd: −log10 of the molar value. Blank lines part the entries; values can stand above or below the sequence they belong to.

Legend:
HLA-B*08:01 = assay: IEDB peptide-MHC binding, purified MHC/competitive/radioactivity; filed as Kd, often an IC50 or EC50 that approximates it; ≥ and ≤ were set here for values at or beyond the usual limits of such assays
HLA-B*07:02 = assay: IEDB peptide-MHC binding, purified MHC/direct/fluorescence; filed as Kd, often an IC50 or EC50 that approximates it; ≥ and ≤ were set here for values at or beyond the usual limits of such assays
HLA-B*40:01 [1] = assay: IEDB peptide-MHC binding, purified MHC/competitive/radioactivity; filed as Kd, often an IC50 or EC50 that approximates it; ≥ and ≤ were set here for values at or beyond the usual limits of such assays
HLA-B*44:02 = assay: as above
HLA-B*44:03 = assay: as above
HLA-A*02:01 = assay: IEDB peptide-MHC binding, purified MHC/competitive/fluorescence; ≥ and ≤ were set here for values at or beyond the usual limits of such assays
HLA-A*24:02 = assay: IEDB peptide-MHC binding, purified MHC/competitive/radioactivity; filed as Kd, often an IC50 or EC50 that approximates it; ≥ and ≤ were set here for values at or beyond the usual limits of such assays
HLA-A*69:01 = assay: IEDB peptide-MHC binding, purified MHC/direct/fluorescence; filed as Kd, often an IC50 or EC50 that approximates it; ≥ and ≤ were set here for values at or beyond the usual limits of such assays; conditions: source organism: Homo sapiens
HLA-A*23:01 = assay: IEDB peptide-MHC binding, purified MHC/competitive/radioactivity; filed as Kd, often an IC50 or EC50 that approximates it; ≥ and ≤ were set here for values at or beyond the usual limits of such assays
HLA-A*29:02 = assay: as above
HLA-A*02:03 = assay: as above; conditions: source organism: Dengue virus 4 Philippines/H241/1956
HLA-A*03:01 [2] = assay: as above; conditions: source organism: Vaccinia virus WR
HLA-A*11:01 = assay: as above; conditions: source organism: Vaccinia virus WR
HLA-A*31:01 [3] = assay: as above; conditions: source organism: Vaccinia virus WR
HLA-A*33:01 = assay: as above; conditions: source organism: Vaccinia virus WR
HLA-A*68:01 = assay: as above; conditions: source organism: Vaccinia virus WR
HLA-A*03:01 [4] = assay: IEDB peptide-MHC binding, purified MHC/direct/fluorescence; filed as Kd, often an IC50 or EC50 that approximates it; ≥ and ≤ were set here for values at or beyond the usual limits of such assays; conditions: source organism: Pseudomonas aeruginosa UCBPP-PA14
HLA-A*31:01 [5] = assay: as above; conditions: source organism: Pseudomonas aeruginosa UCBPP-PA14
HLA-B*40:01 [6] = assay: as above; conditions: source organism: Mycobacterium tuberculosis variant bovis
HLA-B*53:01 = assay: IEDB peptide-MHC binding, purified MHC/competitive/radioactivity; filed as Kd, often an IC50 or EC50 that approximates it; ≥ and ≤ were set here for values at or beyond the usual limits of such assays; conditions: source organism: Dengue virus 3 Martinique/1243/1999
[7] = source organism: Dengue virus 2 Jamaica/1409/1983
[8] = source organism: Dengue virus 4 Philippines/H241/1956
[9] = source organism: Zaire ebolavirus
[10] = source organism: Mammarenavirus tacaribeense
[11] = source organism: Dengue virus 3 Martinique/1243/1999
[12] = source organism: Vaccinia virus
[13] = source organism: Sudan ebolavirus
[14] = source organism: Vaccinia virus WR
[15] = source organism: Dengue virus 1 Brazil/97-11/1997
[16] = source organism: Dengue virus 2 16681-PDK53
[17] = source organism: Mammarenavirus brazilense

Sequence: KWKSRLNAL
pKd (HLA-B*08:01; [7]): 7.18

Sequence: LIAIAVASGL
pKd (HLA-B*08:01; [8]): 4.93

Sequence: SPSKRNQTF
pKd (HLA-B*07:02; source organism: Mammarenavirus amapariense): 7.18

Sequence: LNGRKRSTM
pKd (HLA-B*08:01; [8]): 7.00

Sequence: SEVCDHRLM
pKd (HLA-B*40:01 [1]; [8]): 6.52 | pKd (HLA-B*44:02; [8]): 7.59 | pKd (HLA-B*44:03; [8]): 7.12

Sequence: HEEPIPMSTY
pKd (HLA-B*44:02; [7]): 6.40 | pKd (HLA-B*44:03; [7]): 6.60

Sequence: SRSTSLSVSL
pKd (HLA-B*08:01; [7]): 6.25

Sequence: NAGQFLSFA
pIC50 (HLA-A*02:01; [9]): ≤ 3.92

Sequence: TYGLNTFTN
pKd (HLA-A*24:02; [7]): 5.80

pKd (HLA-A*69:01): 5.87 | pKd (HLA-B*07:02; source organism: Homo sapiens): 5.46
Sequence: IPYHIVNIV

Sequence: CWFADKNLI
pKd (HLA-A*23:01; [10]): 6.56 | pKd (HLA-A*24:02; [10]): 6.29 | pKd (HLA-A*29:02; [10]): 5.50

Sequence: HVQRIETWIL
pKd (HLA-B*08:01; [7]): 5.76

Sequence: GWHDWQQVPF
pKd (HLA-A*23:01; [11]): 6.38 | pKd (HLA-A*24:02; [11]): 6.93

Sequence: NLSPETLVG
pIC50 (HLA-A*02:01; [12]): ≤ 3.77

Sequence: WLSYKVASA
pKd (HLA-A*02:03): 7.91 | pKd (HLA-B*08:01; [8]): 8.13

Sequence: QIPSSSPTT
pIC50 (HLA-A*02:01; [13]): 4.37

Sequence: ESMASLKSLY
pKd (HLA-A*03:01 [2]): 8.12 | pKd (HLA-A*11:01): 6.94 | pKd (HLA-A*29:02; [14]): ≤ 4.15 | pKd (HLA-A*31:01 [3]): 5.50 | pKd (HLA-A*33:01): 4.80 | pKd (HLA-A*68:01): 8.33

Sequence: LGLITNTIA
pIC50 (HLA-A*02:01; [9]): 4.45

Sequence: AEPDGPTPEL
pKd (HLA-B*40:01 [1]; [11]): 7.97

Sequence: ITQKGIIFIL
pKd (HLA-B*08:01; [15]): 6.24

Sequence: IHLAIMAVF
pKd (HLA-A*24:02; [8]): 7.14

Sequence: TWPKSHTLW
pKd (HLA-A*24:02; [11]): 7.40

Sequence: GMVPLHIPE
pIC50 (HLA-A*02:01; [13]): ≤ 3.99

Sequence: NKAWLVHRQW
pKd (HLA-B*44:02; [16]): 5.94 | pKd (HLA-B*44:03; [16]): 5.39

Sequence: VYTQLCDHRL
pKd (HLA-A*24:02; [11]): 8.20

Sequence: SLEKAAEVSW
pKd (HLA-B*44:02; [15]): 6.76

Sequence: SLEFIRRSL
pKd (HLA-B*08:01; [14]): 5.91

pKd (HLA-A*03:01 [4]): ≤ 4.70 | pKd (HLA-A*31:01 [5]): 6.60
Sequence: MVTGGIRRR

Sequence: GEYRLRGEAR
pKd (HLA-B*40:01 [1]; [7]): 5.72

Sequence: LETRAETWM
pKd (HLA-B*40:01 [1]; [8]): 6.58

Sequence: INKRKKTSL
pKd (HLA-B*08:01; [11]): 7.74

Sequence: LYAVATTFIT
pKd (HLA-A*24:02; source organism: Dengue virus 2 Peru/IQT2913/1996): ≤ 4.63

Sequence: VTNSTLEVT
pIC50 (HLA-A*02:01; [13]): ≤ 3.91

Sequence: EGAFFLYDR
pIC50 (HLA-A*02:01; [9]): ≤ 3.29

Sequence: VILSLPRIA
pIC50 (HLA-A*02:01; source organism: Variola virus): 5.86

Sequence: NEAIMAVGM
pKd (HLA-B*44:02; [7]): 7.07 | pKd (HLA-B*44:03; [7]): 6.65

Sequence: SMAMRCVGI
pKd (HLA-B*08:01; [15]): 8.23

Sequence: AYVVIGILTL
pKd (HLA-A*24:02; [11]): 6.03

Sequence: FFLYDRLAS
pIC50 (HLA-A*02:01; [13]): 4.40

Sequence: LFQLIFFLTL
pKd (HLA-A*23:01; [17]): 5.04 | pKd (HLA-A*24:02; [17]): ≤ 4.27 | pKd (HLA-A*29:02; [17]): 6.17

Sequence: SAKTKISVE
pKd (HLA-B*08:01; [14]): 6.62

Sequence: YENLKYSVIV
pKd (HLA-B*40:01 [1]; [15]): 7.15

Sequence: TTQDEGAAI
pIC50 (HLA-A*02:01; [9]): ≤ 3.66

Sequence: CPRRYLHRL
pKd (HLA-B*08:01; [14]): 8.58

Sequence: GEPDARYEI
pKd (HLA-B*40:01 [6]): 7.15

Sequence: VLNGAELSN
pIC50 (HLA-A*02:01; [12]): ≤ 3.94

Sequence: VDLHPASAW
pKd (HLA-B*44:02; [15]): 7.10

Sequence: SQILLMRTTW
pKd (HLA-B*44:02; [15]): 6.44 | pKd (HLA-B*44:03; [15]): 6.49

Sequence: TQSRPIQNV
pIC50 (HLA-A*02:01; [9]): 4.84

Sequence: EYQKTKLNDW
pKd (HLA-A*23:01; [11]): 4.97 | pKd (HLA-A*24:02; [11]): 4.99

Sequence: AETQNSSFII
pKd (HLA-B*40:01 [1]; [11]): 7.64 | pKd (HLA-B*44:02; [11]): 7.20 | pKd (HLA-B*44:03; [11]): 7.46

Sequence: YSIPATLLVW
pKd (HLA-A*23:01; [11]): 7.15 | pKd (HLA-B*53:01): 7.22

Sequence: YQPDTGNYIL
pKd (HLA-A*23:01; [17]): 5.76 | pKd (HLA-A*24:02; [17]): 5.22 | pKd (HLA-A*29:02; [17]): 5.26

Sequence: LLRKHTLKI
pKd (HLA-B*08:01; [14]): 7.68

pIC50 (HLA-A*02:01; source organism: Mus musculus): 6.54
Sequence: ALFSSCPV

Sequence: EELPETMETL
pKd (HLA-B*40:01 [1]; [11]): 6.72
